From patent US20140235820A1, “METHODS AND COMPOSITIONS FOR MODULATING THE Wnt PATHWAY” (Genentech, Inc., priority 2010, published 2014)
One block for each molecule: values may come before it. Positions of bridges follow the written chain, without caps; N, C: chain ends.

Columns and labels:
[1] = target: T1, human LRP6 construct E1E2 (amino acids A20-E631) (human, UniProt O75581 20-631, biotinylated for biolayer interferometry); assay: competition phage ELISA
T1 construct: range 20-631; also called LRP6 E1E2
T1 sequence (looked up): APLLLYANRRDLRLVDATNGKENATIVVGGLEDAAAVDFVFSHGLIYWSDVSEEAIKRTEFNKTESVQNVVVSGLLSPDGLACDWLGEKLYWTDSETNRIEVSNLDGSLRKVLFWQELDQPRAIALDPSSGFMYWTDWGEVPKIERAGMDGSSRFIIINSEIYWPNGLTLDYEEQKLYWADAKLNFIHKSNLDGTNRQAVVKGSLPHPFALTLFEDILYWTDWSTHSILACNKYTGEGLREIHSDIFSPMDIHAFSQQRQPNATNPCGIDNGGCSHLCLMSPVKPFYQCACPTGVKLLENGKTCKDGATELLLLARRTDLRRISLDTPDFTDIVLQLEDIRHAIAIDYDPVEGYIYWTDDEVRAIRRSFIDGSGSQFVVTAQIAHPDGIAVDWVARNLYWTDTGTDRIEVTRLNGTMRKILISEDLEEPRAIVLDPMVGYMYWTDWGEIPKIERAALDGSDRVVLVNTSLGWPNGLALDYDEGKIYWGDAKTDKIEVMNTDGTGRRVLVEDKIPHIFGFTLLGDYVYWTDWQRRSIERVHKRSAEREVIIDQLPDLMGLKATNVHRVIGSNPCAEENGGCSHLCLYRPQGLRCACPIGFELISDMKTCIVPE
Description: Peptide affinities were also determined by competition with phage displaying a binding peptide (competition phage ELISA). Serial dilutions of test peptide were mixed with an appropriate (non-saturating) concentration of phage before exposing the mixture to target and allowing it to reach equilibrium. After washing to remove unbound material, bound phage were detected by incubation with anti-M13 antibody-horseradish peroxidase (HRP) conjugate and exposure to a suitable colorometric HRP substrate.
FIG. 7B. These peptides include the “NXI” motif described above. Affinities of the peptides for LRP6 E1E2 were determined by competition phage ELISA (41). […] To understand the detailed interactions of the peptides with LRP6, we determined high-resolution co-crystal structures of the peptides bound to the LRP6 E1 β-propeller.

[2] = target: T2, human LRP6 construct E1 (amino acids A20-D325) (human, UniProt O75581 20-325); assay: legend of FIG. 22
T2 construct: range 20-325; In the Fab crystal E1 arose from E1E2 degraded beyond Arg 335; residues Ala20 to Lys324 were traced; also called LRP6 E1; E1 domain
T2 sequence (looked up): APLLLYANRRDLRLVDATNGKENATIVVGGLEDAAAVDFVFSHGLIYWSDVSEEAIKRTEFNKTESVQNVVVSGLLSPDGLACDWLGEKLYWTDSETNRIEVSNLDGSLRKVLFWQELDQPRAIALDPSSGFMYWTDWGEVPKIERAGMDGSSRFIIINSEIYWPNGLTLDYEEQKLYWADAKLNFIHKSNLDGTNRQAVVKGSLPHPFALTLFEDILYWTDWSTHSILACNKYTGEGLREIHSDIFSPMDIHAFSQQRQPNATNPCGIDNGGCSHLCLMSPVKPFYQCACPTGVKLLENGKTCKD
Description: (§1) Binding kinetics were measured by biolayer interferometry using an Octet Red instrument (ForteBio) as previously described (11). Streptavidin (SA) biosensors were loaded with biotinylated hLRP6 in 50 mMTris, pH 8, 300 mM NaCl, 5% (v/v) glycerol, and 0.05% (w/v) Triton X-100. The loaded biosensors were washed in the same buffer before carrying out association and dissociation measurements for the indicated times. The Kd of each interaction was determined using steady state-analysis through the Octet Red software v6.3. Each reported value represents an average of three or more experiments at different concentrations, with a fitted experimental curve for which the square of the correlation coefficient (R²) is above 0.96.

LRP6 E1E2 = target: T3, LRP6 E1E2 (Homo sapiens, UniProt O75581); assay: Biolayer interferometry binding to LRP6 E1E2; conditions: steady state, read-out: affinity for LRP6 E1E2
T3 construct: construct E1E2-amino acids A20-E631 of LPR6; made in house; host or cells: Tni insect cells (baculovirus, secreted)
T3 sequence (O75581 20-631): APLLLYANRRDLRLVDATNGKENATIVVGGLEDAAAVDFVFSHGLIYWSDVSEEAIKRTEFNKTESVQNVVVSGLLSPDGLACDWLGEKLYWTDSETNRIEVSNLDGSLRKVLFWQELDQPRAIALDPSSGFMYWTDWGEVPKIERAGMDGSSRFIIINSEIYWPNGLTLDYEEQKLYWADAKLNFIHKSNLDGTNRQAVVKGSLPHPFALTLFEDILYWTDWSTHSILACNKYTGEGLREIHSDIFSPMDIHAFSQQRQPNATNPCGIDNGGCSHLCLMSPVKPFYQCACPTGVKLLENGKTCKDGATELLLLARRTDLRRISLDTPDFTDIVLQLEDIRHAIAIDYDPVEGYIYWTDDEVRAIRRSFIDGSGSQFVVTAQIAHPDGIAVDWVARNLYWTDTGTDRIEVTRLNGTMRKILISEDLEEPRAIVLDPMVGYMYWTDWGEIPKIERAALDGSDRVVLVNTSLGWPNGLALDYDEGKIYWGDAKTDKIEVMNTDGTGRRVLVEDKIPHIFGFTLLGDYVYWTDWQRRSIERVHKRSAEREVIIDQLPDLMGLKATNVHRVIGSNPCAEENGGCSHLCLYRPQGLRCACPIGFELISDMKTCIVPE
Description: as §1, with “(R^2)” for “(R²)”
(§2) The interaction of the different Dkks and sclerostin with various domains of LRP6 was measured using a biolayer interferometry assay (11). Purified receptors contained individual β-propeller-EGF-like units (E1, E2, or E4), two β-propellers (E1E2 or E3E4), or four β-propellers (E1E4))—as follows:
(§3) Human LRP6: construct E1E4-amino acids A20-Q1253 of LPR6; construct E1E2-amino acids A20-E631 of LPR6; construct E3E4 amino acids E631-Q1253 of LPR6; construct E1-amino acids A20-D325 of LPR6; construct E2-amino acids […]-E631 of LPR6; construct E4-T933-Q1253. The individual LRP6 β-propeller E3 could not be expressed.

LRP6 = assay: Competition binding between Dkk1 and other Wnt pathway inhibitors (preloaded Dkk1); set-up: species or system human; conditions: Dkk1 100 nM preloaded, test ligand 100 nM
Description: FIG. 8. Competition binding between Dkk1 and other Wnt pathway inhibitors. The indicated LRP6 construct was preloaded onto biosensor tips. Dkk1 (100 nM) (or buffer control) and the test ligand (100 nM) were loaded sequentially onto the LRP6 tips. (A) Dkk2 competition with Dkk1. (B) Sclerostin competition with Dkk1. Percent binding in the presence of Dkk1 is shown relative to buffer control.
as §1, with “(R^2)” for “(R²)”
To assess whether Dkk1, Dkk2, and sclerostin might bind to the same site on LRP6 E1, Dkk2 or sclerostin binding was measured in the presence of preloaded Dkk1 (100 nM). […]

LRP6 E2 = target: T4, LRP6 E2 (Homo sapiens, UniProt O75581); assay: Biolayer interferometry binding to LRP6 E2
T4 construct: construct E2-amino acids D235-E631 of LPR6; made in house; host or cells: Tni insect cells (baculovirus, secreted)
T4 sequence (O75581 325-631 limits assumed): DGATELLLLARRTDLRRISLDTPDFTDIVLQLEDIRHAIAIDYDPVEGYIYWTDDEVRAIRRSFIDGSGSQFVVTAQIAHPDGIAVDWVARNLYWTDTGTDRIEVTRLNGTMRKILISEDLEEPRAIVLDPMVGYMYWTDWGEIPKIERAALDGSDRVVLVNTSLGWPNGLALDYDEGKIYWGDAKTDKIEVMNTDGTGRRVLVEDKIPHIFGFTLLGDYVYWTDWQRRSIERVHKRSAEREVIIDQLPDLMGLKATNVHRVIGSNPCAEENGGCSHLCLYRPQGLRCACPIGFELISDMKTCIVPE
Description: as §1, with “(R^2)” for “(R²)”
as §2, §3

LRP6 E4 = target: T5, LRP6 E4 (Homo sapiens, UniProt O75581); assay: Biolayer interferometry binding to LRP6 E4
T5 construct: construct E4-T933-Q1253; made in house; host or cells: Tni insect cells (baculovirus, secreted)
T5 sequence (O75581 933-1253): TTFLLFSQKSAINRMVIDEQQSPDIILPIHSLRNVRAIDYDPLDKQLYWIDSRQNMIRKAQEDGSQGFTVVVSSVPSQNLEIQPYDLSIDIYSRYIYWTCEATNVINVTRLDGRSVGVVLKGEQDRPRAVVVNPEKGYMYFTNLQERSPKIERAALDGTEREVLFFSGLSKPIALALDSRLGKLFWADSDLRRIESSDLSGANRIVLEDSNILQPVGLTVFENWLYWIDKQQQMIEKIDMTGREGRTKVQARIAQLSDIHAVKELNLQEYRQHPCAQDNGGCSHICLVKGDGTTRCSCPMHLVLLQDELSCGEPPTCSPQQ
Description: as §1, with “(R^2)” for “(R²)”
as §2, §3

LRP6 E3E4 = target: T6, LRP6 E3E4 (Homo sapiens, UniProt O75581); assay: Biolayer interferometry binding to LRP6 E3E4; conditions: steady state, read-out: affinity for LRP6 E3E4
T6 construct: construct E3E4 amino acids E631-Q1253 of LPR6; made in house; host or cells: Tni insect cells (baculovirus, secreted)
T6 sequence (O75581 631-1253): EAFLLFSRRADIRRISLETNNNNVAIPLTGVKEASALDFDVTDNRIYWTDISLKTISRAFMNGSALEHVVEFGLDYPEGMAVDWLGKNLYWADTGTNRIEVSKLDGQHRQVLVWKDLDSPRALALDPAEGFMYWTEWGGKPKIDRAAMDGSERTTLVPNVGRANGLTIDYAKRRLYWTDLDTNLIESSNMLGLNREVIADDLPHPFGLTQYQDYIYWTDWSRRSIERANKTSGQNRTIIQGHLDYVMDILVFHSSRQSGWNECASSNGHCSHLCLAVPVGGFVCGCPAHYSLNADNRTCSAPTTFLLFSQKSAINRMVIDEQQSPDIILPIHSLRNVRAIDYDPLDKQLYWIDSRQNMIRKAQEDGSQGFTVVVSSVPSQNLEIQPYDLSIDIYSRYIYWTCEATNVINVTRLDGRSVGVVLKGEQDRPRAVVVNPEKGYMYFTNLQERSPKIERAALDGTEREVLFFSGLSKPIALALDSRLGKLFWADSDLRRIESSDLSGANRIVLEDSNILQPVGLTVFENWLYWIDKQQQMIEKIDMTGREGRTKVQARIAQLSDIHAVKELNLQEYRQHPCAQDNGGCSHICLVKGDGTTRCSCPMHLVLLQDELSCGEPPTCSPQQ
Description: as §1, with “(R^2)” for “(R²)”
as §2, §3

LRP6 E1 = target: T7, LRP6 E1 (Homo sapiens, UniProt O75581); assay: Biolayer interferometry binding to LRP6 E1
T7 construct: construct E1-amino acids A20-D325 of LPR6; made in house; host or cells: Tni insect cells (baculovirus, secreted)
T7 sequence (O75581 20-325): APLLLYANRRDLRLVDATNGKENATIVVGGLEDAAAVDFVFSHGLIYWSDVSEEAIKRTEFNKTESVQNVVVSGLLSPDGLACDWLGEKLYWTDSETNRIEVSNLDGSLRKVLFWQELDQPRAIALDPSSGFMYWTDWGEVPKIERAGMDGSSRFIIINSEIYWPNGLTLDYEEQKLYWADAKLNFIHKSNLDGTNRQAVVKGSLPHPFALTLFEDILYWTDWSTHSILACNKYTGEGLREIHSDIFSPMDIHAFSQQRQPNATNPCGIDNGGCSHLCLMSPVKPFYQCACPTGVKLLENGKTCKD
Description: as §1, with “(R^2)” for “(R²)”
as §2, §3

IC50 [1]: 4 µM
Molecule: Ac-NSNAIKN-NH2 (also called Dkk1 peptide) [Dkk1 7-mer peptide Ac-NSNAIKN-am]

binding result [2]: binds
Molecule: Ac-CNSIKFCG-NH2 (disulfide 1-7 (inferred), also called Peptide B) [Ac-CNSIKFCG-am (disulfide)]

Kd (LRP6 E1E2): 53 nM
binding to LRP6 in the presence of preloaded Dkk1 (LRP6): inhibited only slightly
binding to LRP6 E2 (in words) (LRP6 E2): Partial binding
binding to LRP6 E4 (in words) (LRP6 E4): undetectable
Kd (LRP6 E3E4): 38 nM
binding to LRP6 E1 (in words) (LRP6 E1): bind with high affinity
B1: Dkk2: Dickkopf 2, carrier-free protein from R&D Systems (protein, UniProt Q9UBU2 34-259, looked up)
Dickkopf-related protein 2: KLNSIKSSLGGETPGQAANRSAGMYQGLAFGGSKKGKNLGQAYPCSSDKECEVGRYCHSPHQGSSACMVCRRKKKRCHRDGMCCPSTRCNNGICIPVTESILTPHIPALDGTRHRDRNHGHYSNHDLGWQNLGRPHTKMSHIKGHEGDPCLRSSDCIEGFCCARHFWTKICKPVLHQGEVCTKQRKKGSHGLEIFQRCDCAKGLSCKVWKDATYSSKARLHVCQKI
